Measured values as given in patent publication US11406709B2, “Therapeutic and research application of PDCL3” (TRUSTEES OF BOSTON UNIVERSITY, priority 2014, dated 2022).

Experiments:
[1] = system: VEGFR-1, CSF-1R and PDGFRβ; assay: Cell-free protein synthesis, rabbit reticulocyte transcription/translation system; type: biochemical; details: TNT Quick Coupled Transcription/Translation System
Experimental: FIG. 12A. Schematic of the experiment is shown. FIG. 12B. In vitro translation and transcription was performed as recommended by the manufacturer except in one group recombinant PDCL3 was added into reaction mixture.
To test whether PDCL3 also could increase expression of cell surface receptors in a cell-free protein synthesis system, we tested the effect of PDCL3 in rabbit reticulocyte system.

VEGFR-2 = assay: In vitro transcription/translation of VEGFR-2; type: biochemical
Experimental: FIG. 1A. HEK-293 cells expressing VEGFR-2 were transfected with different concentrations of C-terminus Myc-tagged PDCL3. After 48 hours cells were lysed and whole cell lysates (WCL) were blotted for VEGFR-2, PDCL3 and Hsp70 for loading control. Quantification of premature (newly synthesized and partially glycosylated VEGFR-2 corresponding to lower molecular weight) and mature (fully glycosylated) forms of VEGFR-2 is shown. Mean results of three independent experiments are shown. *P=0.04 and […]. FIG. 1B. Human umbilical vein endothelial cells (HUVECs) were transfected with control siRNA or PDCL3-siRNA. After 48 hours cells serum-starved for overnight followed by stimulation with VEGF for 10 minutes. Cells were lysed and whole cell lysates were blotted for phospho-Y1054-VEGFR-2, total VEGFR-2, PDCL3 and Hsp70 for loading control. FIG. 1C. Thermo-induced aggregation of VEGFR-2 was measured using PSA dye as described in the materials and method section. FIG. 1D. In vitro transcription/translation of VEGFR-2 in the absence or presence of exogenous recombinant PDCL3 was performed as described in the materials and method section and schematic of the procedure is shown. FIG. 1E. In vitro translated VEGFR-2 protein in the absence or presence of exogenous recombinant PDCL3 was blotted for VEGFR-2. FIG. 1F. […]

B1: recombinant PDCL3 protein: exogenous recombinant PDCL3 protein added to in vitro translation; purified GST-PDCL3 in aggregation assay (protein)
chain: MQDPNADTEWNDILRKKGILPPKESLKELEEEAEEEQRILQQSVVKTYEDMTLEELEDHEDEFNEEDERAIEMYRRRRLAEWKATKLKNKFGEVLEISGKDYVQEVTKAGEGLWVILHLYKQGIPLCALINQHLSGLARKFPDVKFIKAISTTCIPNYPDRNLPTIFVYLEGDIKAQFIGPLVFGGMNLTRDELEWKLSESGAIMTDLEENPKKPIEDVLLSSVRRSVLMKRDSDSEGD
modifications: left off: small tags and cut ends
notes: exogenous recombinant PDCL3 protein added to in vitro translation; purified GST-PDCL3 in aggregation assay
[1]
  expression of VEGFR-1, CSF-1R and PDGFRβ: significantly increased expression of VEGFR-1, CSF-1R and PDGFRβ
VEGFR-2
  yield of in vitro translated VEGFR-2: significantly increases the yield of in vitro translated VEGFR-2
